This passage reports IC50 of cell viability (CellTiter-Glo, 72 h) on KRas mutant cell lines results from patent publication US20230027739A1, “ANTIGEN-BINDING AND ANTIGEN D[…]” (Entrada Therapeutics, Inc., priority 2021, published 2023).

The test concerns the target KRas in human cancer cell lines with KRas mutations (HCT-116, SW480, LS180, LS174T) (human), P01116. Description: cell-based or functional assay.

B1: K19-Cys-EEV12 (designed binder)
chain: MHHHHHHENLYFQGDLGKKLLEAARAGQDDEVRILMANGADVNASDRWGWTPLHLAAWWGHLEIVEVLLKRGADVSAADLHGQSPLHLAAMVGHLEIVEVLLKYGADVNAKDTMGATPLHLAARSGHLEIVEELLKNGADMNAQDKFGKTTFDISTDNGNEDLAEILQKLC
modifications: not checked
B1 returned an IC50 of cell viability (CellTiter-Glo, 72 h) on KRas mutant cell lines of 2 to 8 µM.
